The supplement of paper PMC9170038

Columns and labels:
MS2 coat protein [1] = assay: apparent KD of MS2 coat protein, switch ON state; designed switch direction (-1 OFF switch, 1 ON switch): 1; higher = weaker reporter binding; settings: FMN input: 0 or 200 uM; Eterna round: R93 (includes R88 designs)
Method in brief: (§1)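 Apparent KD was obtained for each design as the median of normalised binding-curve fits over its clusters. RNA switches transcribed on-chip from Illumina sequencing clusters were titrated with SNAP-549-labelled MS2 coat protein (twofold steps, 0.7 or 1.5 nM to 3 µM) in 100 mM Tris-HCl pH 7.5, 80 mM KCl, 4 mM MgCl2, without or with constant ligand.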

MS2 coat protein [2] = assay: apparent KD of MS2 coat protein, switch OFF state (with FMN for OFF switches, without FMN for ON switches); designed switch direction (-1 OFF switch, 1 ON switch): 1; higher = weaker reporter binding; settings: FMN input: 0 or 200 uM; Eterna round: R93 (includes R88 designs)
Method in brief: as §1

| Sequence | apparent KD of MS2 coat protein (MS2 coat protein [1]) | apparent KD of MS2 coat protein (MS2 coat protein [2]) |
| --- | --- | --- |
| AAACAGAUAGGACAGGAUAUGUCGUGAUAAACAUGAGGAUCACCCAUGUGAGACAUCACGUAAUCGCAGAAGGGUCCCGUCUUAC [Usonsoave] | 11.1 nM | 12.7 nM |
| GGUACAUCUAGUUAGGAUAUCAGGUGUAAGACAUGAGGAUCACCCAUGUCCUAAGAACAGGUAACUGAGAAGGAACAGGGAGUCC [JR_SS002_Sub416] | 64.6 nM | 133 nM |
| GUAUAUAUAAGACAGGAUAUCCUAAAGUAAACAUGAGGAUCACCCAUGUAAAGAAAGAAACUCAUGGAGAAGGGUCAAUAUAUAC [Mat - Same State 2 - Tesla mod - D82] | 11.5 nM | 27.1 nM |
| CGCGAACAUGAGGAUCACCCAUGUGAAAAACACAGAGGAUAUGUCGCAUGCGUGUAAAAGACAGAAGGCUGUCGCG [mod of top voted: #3] | 19.7 nM | 84 nM |
| AAUCCAAAUAGUUAGGAUAUGGGAAUUAAAACAUGAGGAUCACCCAUGUAAUUGAAACAAGUUAACCAGAAGGGACAGGGUGAAA [JR_SS002_Sub209] | 68.8 nM | 46.1 nM |
| AUAAAACAUGAGGAUCACCCAUGUGAAAAUAUGGGAGGAUAUACGUAGACGAAAGUCGACGUAGAAGGCCUAAAAG [Same State 1.4n.2 (Mat - Mod of Eli - )] | 28.8 nM | 81.8 nM |
| AACAAUCUAUCUGAGGAUAUCAUGUCAAAGACAUGAGGAUCACCCAUGUCGCAGGAAACUGCUCAUGAGAAGGCAGAUAGAUUGA [SS2: 1128] | 11.2 nM | 17.2 nM |
| GCAAAACAUGAGGAUCACCCAUGUCAACAAAAUCAAGGAUAUGAGCCAGCAAUGCCGGCAUCAGAAGGUGAACCUU [Enqule] | 53.2 nM | 68.5 nM |
| UAAAAACAUGAGGAUCACCCAUGUGAGAACAUGGGAGGAUAUACGAAGACGAAAGUCGAAGUAGAAGGCCUAAAAU [Mat - Same State 1 - Mod - D172] | 145 nM | 39.3 nM |
| AGAAAUAAAAGCGAGGAUAUCCAAAAGAAAACAUGAGGAUCACCCAUGUAAAAGAAAAUAAAAUGGGAGAAGGCGCAAAAUAAAG | 14.7 nM | 27.3 nM |
| AGAAAACAUGAGGAUCACCCAUGUAGGAAUAUGGGAGGAUAUACAAAGACGAAAGUCAGAGUAGAAGGCCUAGGAA [salish99-SS1-089] | 20.7 nM | 71.5 nM |
| AGGAGACAUGAGGAUCACCCAUGUGCACGGUGAAGAGGAUAUGUGCGUGGAGAGACACGGACAGAAGGCUUAAGAA [JR_SameState1_Sub5] | 23 nM | 38.9 nM |
| AGGAAACAUGAGGAUCACCCAUGUAAAAGGUGGUUAGGAUAUGCGAAAAGAAAAAGAAAAGCAGAAGGGACAAGAA [Inspired by JR's SameStare1_sub2] | 237 nM | 415 nM |
| AUAAAACAUGAGGAUCACCCAUGUAGAAAUAUGGGAGGAUAUACAAAGACGAAAGUCAAAGUAGAAGGCCUAAAAG [Mod of Meechl's design Meechl MS2 SS1 2] | 24 nM | 66.2 nM |
| AAAUGACAUGAGGAUCACCCAUGUCCACCAAACGGAGGAUAUUGGGCGGAAAAACGUUGUUAAGAAGGCCGAAAAA [SS1-1.0] | 143 nM | 73.7 nM |
| AAAACACAUGAGGAUCACCCAUGUAAAAACAUGAGAGGAUAUGCAUAGAAAAAAAACUAUGCAGAAGGCUCAUGUG [SS1 - 5] | 20 nM | 29.1 nM |
| AAAAAAAAGGGUGAGGAUAUCGAAAAAAAAACAUGAGGAUCACCCAUGUGAAAAAAAAAAAAAUGCGAGAAGGCACUAAAAAAAAA [Same State 2.3] | 23.2 nM | 104 nM |
| UGAAGACAUGAGGAUCACCCAUGUGGGAUUAUGGGAGGAUAUACAAAGACGAGAGUCAGAGUAGAAGGCCUAGGAG [salish99-ss1-118(!)] | 39.5 nM | 67.9 nM |
| GAUAUACAUGAGGAUCACCCAUGUUAGGUGGGUCAAGGAUAUUGAUAUAAAUAAAAAACUCGAGAAGGUGAAUAAA [JR_SS001_Sub020] | 298 nM | 153 nM |
| AAAAAACAUGAGGAUCACCCAUGUAAAAAUAUGGGAGGAUAUGGAAACACGAAAGUGAAACCAGAAGGCUCAAAAG [77%, Mat - Mod of Eli, 17] | 21.2 nM | 78.4 nM |
| AAAGUGCCGACGAAGGAUAUAGCGGGUGAGACAUGAGGAUCACCCAUGUAUGCAGAACUCAUCCUCUAGAAGGUUGAGACGGCUA [Bionlateat] | 488 nM | 138 nM |
| AAAAAACAUGAGGAUCACCCAUGUAAAAAAAACACAGGAUAUCCCUUUUUUAAAUGAAAAGGAGAAGGGUGAAAAA [Nob's Hobby 9 - Jieux - Same State 1] | 22.6 nM | 24 nM |

| Sequence | apparent KD of MS2 coat protein (MS2 coat protein [1]) | apparent KD of MS2 coat protein (MS2 coat protein [2]) |
| --- | --- | --- |
| UCCUUACAUGAGGAUCACCCAUGUCGCAGGAAUCAAGGAUAUGGGUCCGCAAUGCGGAAACCAGAAGGUGACAAAA [Edusquanon] | 165 nM | 489 nM |
| AACAAUCUAUCUGAGGAUAUCAUGUAAAAAACAUGAGGAUCACCCAUGUGCAGGAAAACUGCAUAUGAGAAGGCAGAUAGAUUGA [SS2 :P - 600] | 98.1 nM | 192 nM |
| CGGAGACAUGAGGAUCACCCAUGUGAGAAGAGGCGAGGAUAUCGAAAGAAAGAAGAGAAACGAGAAGGCGCGAGUA [salish99-SS1-066] | 20.3 nM | 31.9 nM |
| AAGAAACAUGAGGAUCACCCAUGUAAGAUAAACACAGGAUAUGCGAAAGAAAUAAAGAAAGCAGAAGGGUGAAGAA [Mat - Same State 1 - Tesla mod - D147] | 14.3 nM | 26.8 nM |
| GGGAGGAAGAGAGAGGAUAUCCAAAGGAAAACAUGAGGAUCACCCAUGUAAAAGGUAGGAAAUUGGGAGAAGGCUCAAGAGAGGG [salish99-ss2-051] | 23.6 nM | 28 nM |
| AGAAAUAAAAGAGAGGAUAUCCAAAAGAAAACAUGAGGAUCACCCAUGUAAAAGAAAAUAAAAUGGGAGAAGGCUCAUGAUAAAG [JL In the Red Helter Skelter 2 mod 1] | 42 nM | 35.8 nM |
| AAAACACAUGAGGAUCACCCAUGUGAAAACAUGGGAGGAUAUGCAUGGAAAACAUGCUAUGCAGAAGGCUCAUGUG [SS1 - 7] | 83.8 nM | 62.6 nM |
| GAUAAACAUGAGGAUCACCCAUGUAGAAAUAUGGGAGGAUAUACGAAGACGAAAGUCAAAGUAGAAGGCCUAAAAG [Mat - Same State 1 - Eli mod - D114] | 23.9 nM | 52.6 nM |
| GGGAAGAAGAGAGAGGAUAUCCAAAGGAAAACAUGAGGAUCACCCAUGUAAAAGGUAGGAAAUUGGGAGAAGGCUCAAAAGAGGG [salish99-ss2-032] | 29 nM | 39.4 nM |
| AGAAAUAAAGCUGAGGAUAUCCAAAACCAAACAUGAGGAUCACCCAUGUAAAAGAAAAUAAAAUGGGAGAAGGCAGCAAAUAAGA [Designing denovo 8] | 12.5 nM | 21.9 nM |
| GAAAAACAUGAGGAUCACCCAUGUAAAAAUAUGGGAGGAUAUUCAAAGACGAAAGGGAAAGAAGAAGGCCUAAAAG [Garnet 4] | 82.7 nM | 1300 nM |
| GAACCACAUGAGGAUCACCCAUGUCUAAAUAUGGGAGGAUAUGCACAAAAGGAAAUAACUGCAGAAGGCCUACGAA [62%, Redo, 3] | 25.7 nM | 135 nM |
| AGGAAACAUGAGGAUCACCCAUGUAAAGAUGGGCGAGGAUAUCGAAAGAAAAGAAAGAAACGAGAAGGUGCAAAAG [59%, Flamingo, 1] | 409 nM | 251 nM |
| CUGGACAUAGUAUAGGAUAUAUGAAUAAUUACAUGAGGAUCACCCAUGUCCAUUUAUAUGGGAACAUAGAAGGGUGGUAGUUAAG [Mat - Same state - Malcolm Mod - D142] | 147 nM | 97.6 nM |
| GGAAAACAUGAGGAUCACCCAUGUGAAAACGUGGGAGGAUAUCGAUGGAAACCAUACUGUCGAGAAGGCCCAUGUC [EteRNA is fun!] | 18.5 nM | 47.2 nM |
| AGGAAACAUGAGGAUCACCCAUGUAAAAGGUGGGUAGGAUAUGCGAAAAGAAAAAGAAAAGCAGAAGGACCAAGAA [62%, Something completely different, 1] | 38.7 nM | 108 nM |
| AACAAUCUAUCUGAGGAUAUCAUGUCAAAGACAUGAGGAUCACCCAUGUCCAGGAAAACUGGAUAUGAGAAGGCAGAUAGAUUGA [SS2: 1105] | 179 nM | 3310 nM |
| UGGAGACAUGAGGAUCACCCAUGUGAGAAGAGGCGAGGAUAUCGAAAGAAAGAAGAGAAACGAGAAGGCGCGAGUG [salish99-SS1-042] | 40.3 nM | 46.9 nM |
| AAAAGACAUGAGGAUCACCCAUGUAAAAACUUGAGAGGAUAUGCUUGGAAAACAUGCUAUGCAGAAGGCUCUAGUC [SS1 - 15] | 18 nM | 26.3 nM |
| AGAAAUAAAAGACAGGAUAUCCAAACUCAAACAUGAGGAUCACCCAUGUAAAAGAAAAUAAAGUGGGAGAAGGGUCAAAAUAAGA [Jieux modified + C segment V4] | 12.6 nM | 33.1 nM |
| GAAGACAUAGUUCAGGAUAUAGGAAUAGUCACAUGAGGAUCACCCAUGUGCAUUUAUAUGCGCACUUAGAAGGGAGGUAGUUAUA [SameState2 Malc#22] | 32.2 nM | 26.4 nM |
